Numbered stars: 1 amine (or outer) side, 2 acyl side, 3 side chain; on linkers, the order of the positions; unused ones are H or OH. Bridge positions count the residues as written; N and C are the ends. Side chains are listed from the residue outwards. Ends that are not written are not given here. * marks the point of attachment. C20 diacid = O=C(O)CCCCCCCCCCCCCCCCCCC(=O)*; γGlu = O=C(O)[C@H](CCC(=O)[*:2])N[*:1]

Test [1] has as its target T1, human calcitonin receptor (human, UniProt P30988 25-474).
T1 construct: whole, on cells; Membranes from stably transfected BHK cells; also called hCTR; hCT
T1 sequence (looked up): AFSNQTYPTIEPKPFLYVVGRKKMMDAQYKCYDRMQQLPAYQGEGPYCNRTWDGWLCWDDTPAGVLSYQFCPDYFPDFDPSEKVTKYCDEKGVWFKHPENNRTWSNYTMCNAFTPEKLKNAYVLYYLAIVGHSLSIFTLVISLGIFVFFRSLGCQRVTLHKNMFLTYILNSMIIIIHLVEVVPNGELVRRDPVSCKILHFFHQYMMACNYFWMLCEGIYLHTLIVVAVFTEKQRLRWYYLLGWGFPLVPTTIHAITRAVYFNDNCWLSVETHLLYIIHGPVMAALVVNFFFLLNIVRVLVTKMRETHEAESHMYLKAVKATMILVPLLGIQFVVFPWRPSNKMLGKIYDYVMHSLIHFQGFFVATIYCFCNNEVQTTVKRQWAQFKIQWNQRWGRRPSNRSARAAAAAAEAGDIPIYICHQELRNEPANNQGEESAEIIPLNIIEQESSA
Briefly: ratio of IC50 on human calcitonin receptor to IC50 on human amylin receptor. A digest of the protocol:
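IC₅₀ values were derived by one-site competition analysis of SPA counts. Cell membranes (35 ng/μL) with SPA beads were incubated with test compounds for 120 min at 25° C in Hepes buffer, pH 7.4, containing CaCl2, MgCl₂, OA and Tween20.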

Test [2] addresses T2, rat calcitonin receptor (rat, UniProt P32214 25-516).
T2 construct: whole, on cells; Membranes prepared from transiently transfected BHK tk'ts 13 cells; also called rCTR; rat calcitonin (a) receptor
T2 sequence (looked up): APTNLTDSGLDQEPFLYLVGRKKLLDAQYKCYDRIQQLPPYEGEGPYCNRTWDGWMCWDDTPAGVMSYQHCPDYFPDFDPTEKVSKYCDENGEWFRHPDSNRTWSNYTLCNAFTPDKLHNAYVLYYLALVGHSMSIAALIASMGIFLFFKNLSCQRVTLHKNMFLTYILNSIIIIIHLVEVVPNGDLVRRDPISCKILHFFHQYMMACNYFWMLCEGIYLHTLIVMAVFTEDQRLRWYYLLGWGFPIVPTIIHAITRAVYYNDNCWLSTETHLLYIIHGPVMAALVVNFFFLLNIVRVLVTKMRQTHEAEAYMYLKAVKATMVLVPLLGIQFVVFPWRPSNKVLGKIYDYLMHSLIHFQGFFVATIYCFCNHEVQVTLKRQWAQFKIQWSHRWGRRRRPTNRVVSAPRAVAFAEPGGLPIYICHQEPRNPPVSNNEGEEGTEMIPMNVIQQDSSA
Briefly: SPA competition vs 125I-calcitonin, membranes (Assay VIII).

In test [3] the target is T3, rat amylin receptor (rat calcitonin receptor + rat RAMP 3) (rat, UniProt P32214 25-516; Q9JJ73 23-147).
T3 construct: whole, on cells; Membranes prepared from transiently transfected BHK tk'ts 13 cells; also called rAmylin-R; rat amylin 3(a) receptor
T3 sequence (looked up) 1: T2 sequence (looked up)
T3 sequence (looked up) 2: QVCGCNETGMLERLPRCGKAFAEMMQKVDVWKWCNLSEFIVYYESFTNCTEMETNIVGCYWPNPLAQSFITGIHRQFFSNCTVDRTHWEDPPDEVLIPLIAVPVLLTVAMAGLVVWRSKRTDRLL
Briefly: SPA competition vs 125I-rat amylin, membranes (Assay VI).

Test [4] deals with T2, rat calcitonin receptor. Briefly: ratio of IC50 on rat calcitonin receptor to IC50 on rat amylin receptor.

B1: N^ε1-[(4S)-4-carboxy-4-[[(4S)-4-carboxy-4-(19-carboxynonadecanoylamino)butanoyl]amino]butanoyl]-[Glu14,Arg17,Pro21,Pro27,His34,Glu35]-h-amylin (peptide)
peptide: K([γGlu-γGlu-C20 diacid])CNTATCATQRLAEFLRHSSPNFGAIPSSTNVGHETY-NH2
modifications: disulfide 2-7; N-terminus assumed
SMILES: CC[C@H](C)[C@H](NC(=O)[C@H](C)NC(=O)CNC(=O)[C@H](Cc1ccccc1)NC(=O)[C@H](CC(N)=O)NC(=O)[C@@H]1CCCN1C(=O)[C@H](CO)NC(=O)[C@H](CO)NC(=O)[C@H](Cc1c[nH]cn1)NC(=O)[C@H](CCCNC(=N)N)NC(=O)[C@H](CC(C)C)NC(=O)[C@H](Cc1ccccc1)NC(=O)[C@H](CCC(=O)O)NC(=O)[C@H](C)NC(=O)[C@H](CC(C)C)NC(=O)[C@H](CCCNC(=N)N)NC(=O)[C@H](CCC(N)=O)NC(=O)[C@@H](NC(=O)[C@H](C)NC(=O)[C@@H]1CSSC[C@H](NC(=O)[C@@H](N)CCCCNC(=O)CC[C@H](NC(=O)CC[C@H](NC(=O)CCCCCCCCCCCCCCCCCCC(=O)O)C(=O)O)C(=O)O)C(=O)N[C@@H](CC(N)=O)C(=O)N[C@@H]([C@@H](C)O)C(=O)N[C@@H](C)C(=O)N[C@@H]([C@@H](C)O)C(=O)N1)[C@@H](C)O)C(=O)N1CCC[C@H]1C(=O)N[C@@H](CO)C(=O)N[C@@H](CO)C(=O)N[C@H](C(=O)N[C@@H](CC(N)=O)C(=O)N[C@H](C(=O)NCC(=O)N[C@@H](Cc1c[nH]cn1)C(=O)N[C@@H](CCC(=O)O)C(=O)N[C@H](C(=O)N[C@@H](Cc1ccc(O)cc1)C(N)=O)[C@@H](C)O)C(C)C)[C@@H](C)O
Usually IC50 stands for the concentration needed to halve the response being measured. With B1, the “Ratio hCT/hAmylin binding” value in test [1] worked out at 29.1. In addition, the concentration for half-maximal inhibition (IC50) with rat calcitonin receptor [2] stood at 498 nM; in test [3] it was 3.14 nM. The “Ratio rCT/rAmylin binding” value in the test with rat calcitonin receptor [4] came out at 159.

For the molecule K([γGlu-γGlu-C20 diacid])CNTATCATQRLAEFLRHSSPNFGAILSSTPVGPETY-NH2 (disulfide 2-7), in test [1], the “Ratio hCT/hAmylin binding” value was found to be 22.6. The IC50 came out at 33.5 nM in the test with rat calcitonin receptor [2] and 0.449 nM in test [3]. Also, the “Ratio rCT/rAmylin binding” value with rat calcitonin receptor [4] was 74.7.

B2: N^ε1-[(4S)-4-carboxy-4-[[(4S)-4-carboxy-4-(19-carboxynonadecanoylamino)butanoyl]amino]butanoyl]-[Glu14,Arg17,Pro21,Pro27,Pro34,Arg35]-h-amylin (peptide)
peptide: K([γGlu-γGlu-C20 diacid])CNTATCATQRLAEFLRHSSPNFGAIPSSTNVGPRTY-NH2
modifications: disulfide 2-7; N-terminus assumed
SMILES: CC[C@H](C)[C@H](NC(=O)[C@H](C)NC(=O)CNC(=O)[C@H](Cc1ccccc1)NC(=O)[C@H](CC(N)=O)NC(=O)[C@@H]1CCCN1C(=O)[C@H](CO)NC(=O)[C@H](CO)NC(=O)[C@H](Cc1c[nH]cn1)NC(=O)[C@H](CCCNC(=N)N)NC(=O)[C@H](CC(C)C)NC(=O)[C@H](Cc1ccccc1)NC(=O)[C@H](CCC(=O)O)NC(=O)[C@H](C)NC(=O)[C@H](CC(C)C)NC(=O)[C@H](CCCNC(=N)N)NC(=O)[C@H](CCC(N)=O)NC(=O)[C@@H](NC(=O)[C@H](C)NC(=O)[C@@H]1CSSC[C@H](NC(=O)[C@@H](N)CCCCNC(=O)CC[C@H](NC(=O)CC[C@H](NC(=O)CCCCCCCCCCCCCCCCCCC(=O)O)C(=O)O)C(=O)O)C(=O)N[C@@H](CC(N)=O)C(=O)N[C@@H]([C@@H](C)O)C(=O)N[C@@H](C)C(=O)N[C@@H]([C@@H](C)O)C(=O)N1)[C@@H](C)O)C(=O)N1CCC[C@H]1C(=O)N[C@@H](CO)C(=O)N[C@@H](CO)C(=O)N[C@H](C(=O)N[C@@H](CC(N)=O)C(=O)N[C@H](C(=O)NCC(=O)N1CCC[C@H]1C(=O)N[C@@H](CCCNC(=N)N)C(=O)N[C@H](C(=O)N[C@@H](Cc1ccc(O)cc1)C(N)=O)[C@@H](C)O)C(C)C)[C@@H](C)O
notes: also called compound 110
Consider B2, for which the “Ratio hCT/hAmylin binding” value in test [1] came out at 53.6. Also, the half-inhibitory concentration (IC50) in the test with rat calcitonin receptor [2] worked out at 38.3 nM; in test [3] it was 0.339 nM. Moreover, the “Ratio rCT/rAmylin binding” value with rat calcitonin receptor [4] turned out to be 113.

In the case of K([γGlu-γGlu-C20 diacid])CNTATCATQRLAEFLRHSSPNFGAIPSSTNVGPHTY-NH2 (disulfide 2-7 (inferred)), the “Ratio hCT/hAmylin binding” value in test [1] amounted to 27.3. The results for the half-inhibitory concentration (IC50) (with rat calcitonin receptor [2]; in test [3]) were 21 nM and 0.288 nM, respectively. In the test with rat calcitonin receptor [4], the “Ratio rCT/rAmylin binding” value was determined as 73.

B3: N^ε1-[(4S)-4-carboxy-4-[[(4S)-4-carboxy-4-(19-carboxynonadecanoylamino)butanoyl]amino]butanoyl]-[Ser14,Arg17,Pro21,Pro27,Pro34,Glu35]-h-amylin (peptide)
peptide: K([γGlu-γGlu-C20 diacid])CNTATCATQRLASFLRHSSPNFGAIPSSTNVGPETY-NH2
modifications: disulfide 2-7; N-terminus assumed
SMILES: CC[C@H](C)[C@H](NC(=O)[C@H](C)NC(=O)CNC(=O)[C@H](Cc1ccccc1)NC(=O)[C@H](CC(N)=O)NC(=O)[C@@H]1CCCN1C(=O)[C@H](CO)NC(=O)[C@H](CO)NC(=O)[C@H](Cc1c[nH]cn1)NC(=O)[C@H](CCCNC(=N)N)NC(=O)[C@H](CC(C)C)NC(=O)[C@H](Cc1ccccc1)NC(=O)[C@H](CO)NC(=O)[C@H](C)NC(=O)[C@H](CC(C)C)NC(=O)[C@H](CCCNC(=N)N)NC(=O)[C@H](CCC(N)=O)NC(=O)[C@@H](NC(=O)[C@H](C)NC(=O)[C@@H]1CSSC[C@H](NC(=O)[C@@H](N)CCCCNC(=O)CC[C@H](NC(=O)CC[C@H](NC(=O)CCCCCCCCCCCCCCCCCCC(=O)O)C(=O)O)C(=O)O)C(=O)N[C@@H](CC(N)=O)C(=O)N[C@@H]([C@@H](C)O)C(=O)N[C@@H](C)C(=O)N[C@@H]([C@@H](C)O)C(=O)N1)[C@@H](C)O)C(=O)N1CCC[C@H]1C(=O)N[C@@H](CO)C(=O)N[C@@H](CO)C(=O)N[C@H](C(=O)N[C@@H](CC(N)=O)C(=O)N[C@H](C(=O)NCC(=O)N1CCC[C@H]1C(=O)N[C@@H](CCC(=O)O)C(=O)N[C@H](C(=O)N[C@@H](Cc1ccc(O)cc1)C(N)=O)[C@@H](C)O)C(C)C)[C@@H](C)O
notes: also called compound 120
As for B3, the “Ratio hCT/hAmylin binding” value in test [1] is 45.3. For the same molecule, the half-maximal inhibitory concentration (IC50) in the test with rat calcitonin receptor [2] came out at 140 nM; in test [3], 0.161 nM. The “Ratio rCT/rAmylin binding” value with rat calcitonin receptor [4] was 868.

B4: N^ε1-[(4S)-4-carboxy-4-[[(4S)-4-carboxy-4-(19-carboxynonadecanoylamino)butanoyl]amino]butanoyl]-[Glu14,Arg17,Pro21,Pro27,Pro34,Phe37]-h-amylin (peptide)
peptide: K([γGlu-γGlu-C20 diacid])CNTATCATQRLAEFLRHSSPNFGAIPSSTNVGPNTF-NH2
modifications: disulfide 2-7; N-terminus assumed
SMILES: CC[C@H](C)[C@H](NC(=O)[C@H](C)NC(=O)CNC(=O)[C@H](Cc1ccccc1)NC(=O)[C@H](CC(N)=O)NC(=O)[C@@H]1CCCN1C(=O)[C@H](CO)NC(=O)[C@H](CO)NC(=O)[C@H](Cc1c[nH]cn1)NC(=O)[C@H](CCCNC(=N)N)NC(=O)[C@H](CC(C)C)NC(=O)[C@H](Cc1ccccc1)NC(=O)[C@H](CCC(=O)O)NC(=O)[C@H](C)NC(=O)[C@H](CC(C)C)NC(=O)[C@H](CCCNC(=N)N)NC(=O)[C@H](CCC(N)=O)NC(=O)[C@@H](NC(=O)[C@H](C)NC(=O)[C@@H]1CSSC[C@H](NC(=O)[C@@H](N)CCCCNC(=O)CC[C@H](NC(=O)CC[C@H](NC(=O)CCCCCCCCCCCCCCCCCCC(=O)O)C(=O)O)C(=O)O)C(=O)N[C@@H](CC(N)=O)C(=O)N[C@@H]([C@@H](C)O)C(=O)N[C@@H](C)C(=O)N[C@@H]([C@@H](C)O)C(=O)N1)[C@@H](C)O)C(=O)N1CCC[C@H]1C(=O)N[C@@H](CO)C(=O)N[C@@H](CO)C(=O)N[C@H](C(=O)N[C@@H](CC(N)=O)C(=O)N[C@H](C(=O)NCC(=O)N1CCC[C@H]1C(=O)N[C@@H](CC(N)=O)C(=O)N[C@H](C(=O)N[C@@H](Cc1ccccc1)C(N)=O)[C@@H](C)O)C(C)C)[C@@H](C)O
For B4, the “Ratio hCT/hAmylin binding” value in test [1] was 18. The results for the IC50 (with rat calcitonin receptor [2]; in test [3]) were 23.4 nM and 0.205 nM, respectively. Also, the “Ratio rCT/rAmylin binding” value with rat calcitonin receptor [4] was 114.
